According to patent US20170157165, “APTAMER FOR FGF2 AND USE THEREOF” (RIBOMIC INC., published 2017):

How the values were obtained:
FGF2 [1] = target: T1, FGF2 (Homo sapiens, UniProt P09038 P09038:135-288); assay: inhibition; SPR inhibition of FGF2-FGFR1alpha(IIIc); each 0.1 uM; conditions: tags: Peprotech
Method: BIAcore2000 manufactured by BIAcore was used for the measurement. As directed in BIAcore Company's protocol, Protein A (21181, manufactured by PIERCE) was immobilized on a CM5 sensor chip. About 1,000 RU of human FGFR1α (IIIc), R2α (IIIc), R3 (IIIc), R4 (manufactured by R&D Systems) fused with the Fc portion of IgG (manufactured by R&D systems) was each immobilized thereon. As analyte, a mixture of FGF2 (0.1 μM), heparin (0.1 μM) (manufactured by Pfizer) and aptamer (0.15 μM) was flown. Before an inhibitory test, a mixture of FGF2 and heparin was confirmed to bind to 4 kinds of receptors. […] A sensorgram showing that the aptamer shown by aptamer ID 1 inhibits binding of FGF2 and FGFR1α(IIIc), 2α(IIIc), 3(IIIc), 4 is shown in FIG. 2.
In addition, the inhibitory rate against each of the 4 kinds of receptors was determined. The inhibitory rate was determined with the maximum binding amount of the FGF2 and heparin mixture as 0, and the binding amount with an injection buffer alone as 100. The binding amount here means the RU value of the peak top of sensorgram. The inhibitory rate was calculated. […] The inhibitory rate of other aptamers was not more than 50%.
To enhance FGF2-binding activity, stability, drug deliverability and the like, the nucleic acids shown by aptamer IDs 3(1)-3(40), aptamer IDs 4 and 4(1)-4(4), aptamer ID 5 and aptamer ID 6 were chemically synthesized based on the aptamer shown in SEQ ID NO: 3. Here, the aptamer shown by aptamer ID 4 is the aptamer shown by aptamer ID 3(19) wherein one G(M) at the 5′-terminal and one C(M) at the 3′-terminal have been deleted. The aptamer shown by aptamer ID 5 is the aptamer shown by aptamer ID 3(19) wherein one G(M) has been added at the 5′-terminal and one C(M) has been added at the 3′-terminal. The aptamer shown by aptamer ID 6 is the aptamer shown by aptamer ID 3(19) wherein A(M) alone has been added at the 5′-terminal. These nucleic acids were produced by chemical synthesis.

FGF2 [2] = target: T1, FGF2; assay: cell_activity; HUVEC proliferation, FGF2 0.58 nM; conditions: tags: Peprotech
Method: Human umbilical vein endothelial cells (HUVEC) were seeded in a 96 well flat bottom plate at 5×10³ cells per well, and cultured overnight using a medium EGM-2 Bullet Kit for endothelial cells (CC-3162 manufactured by Lonza) containing 2% fetal bovine serum and growth factors. Thereafter, the medium was discarded, the cells were washed twice with PBS buffer, and a mixture of the aptamer shown by aptamer ID 3(21) (5, 2.5, 1, 0.5 nM) and FGF2 (final concentration 0.5 nM), dissolved in a medium exclusively for endothelial cells containing 2% fetal bovine serum, was added. After 72 hr, viable cell number was examined using Cell Counting Kit-8. For the measurement of absorbance, a microplate reader (450 nm) was used. One sample was measured at n=3. As a positive control, anti-FGF2 antibody Anti-FGF, basic (Ab-3) Mouse mAb (3H3) (manufactured by Calbiochem) were used. With the OD value per well obtained by the addition of FGF2 alone and culture of the cells for 3 days as inhibitory activity 0%, and that of the cell obtained by FGF2 free culture for 3 days as inhibitory activity 100%, the inhibitory activity of the aptamer was calculated from the OD value per well obtained by culturing with the addition of a mixture of FGF2 and the aptamer. As a result, it was shown that the aptamer shown by aptamer ID 3(21) has a high inhibitory activity against FGF2.
By a method similar to the above except that the 96 well flat bottom plate was changed to a collagen-coated one, the activity of various aptamers was evaluated. The concentration of FGF2 added was 0.58 nM. As a negative control RNA, Macugen (registered trade mark) sequence without addition of PEG, and with C6 modification of the 5′-terminal and idT modification of the 3′-terminal was used.

T1 sequence (P09038 135-288, one chain of several): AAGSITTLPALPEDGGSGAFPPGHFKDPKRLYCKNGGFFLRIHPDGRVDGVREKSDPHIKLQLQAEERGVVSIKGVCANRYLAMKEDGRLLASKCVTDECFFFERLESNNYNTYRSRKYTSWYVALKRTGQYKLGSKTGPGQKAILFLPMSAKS

Binder | activity (FGF2 [1]) [%] | IC50 (FGF2 [2]) [nM]
GGGAUACUAGGGCAUUAAUGUUACCAGUGUAGUCCC (ssRNA, all C and U 2'-F; 2'-OMe at G1,G2,G3,A4,A9,G10,G11,A14,A17,A18,G20,A23,A26; other purines 2'-OH; 3' idT) [aptamer ID 3(8)] | 84 | 27
GGGAUACUAGGGCAUUAAUGUUACCAGUGUAGUCCC (ssRNA, all C and U 2'-F; 2'-OMe at A6; other purines 2'-OH) [aptamer ID 3(9)] | 89 | –
GGGAUACUAGGGCAUUAAUGUUACCAGUGUAGUCCC (ssRNA, 2'-F at U8,G12,U16,U21,U28,U30; 2'-OH at G27,G29; all others 2'-OMe) [aptamer ID 3(25)] | 90 | 5.1
GGGAUACUAGGGCAUUAAUGUUACCAGUGUAGUCCC (ssRNA, 2'-OMe at G1,G2,G3,A4,A9,G10,G11,A14,U15,U16,A17,A18,U19,G20,A23,A26; other C and U 2'-F; other purines 2'-OH) [aptamer ID 3(13)] | 88 | 15
GGGAUACUAGGGCAUUAAUGUUACCAGUGUAGUCCC (ssRNA, all C and U 2'-F; 2'-OMe at G11; other purines 2'-OH) [aptamer ID 3(3)] | 87 | –
GGGAUACUAGGGCAUUAAUGUUACCAGUGUAGUCCC (ssRNA, all C and U 2'-F; 2'-OMe at G10; other purines 2'-OH) [aptamer ID 3(4)] | 89 | –
GGGAUACUAGGGCAUUAAUGUUACCAGUGUAGUCCC (ssRNA, 2'-OMe at G1,G2,G3,A4,A9,G10,G11,A14,A17,A18,G20,U22,A23,A26; other C and U 2'-F; other purines 2'-OH) [aptamer ID 3(14)] | 87 | 12
GGGAUACUAGGGCAUUAAUGUUACCAGUGUAGUCCC (ssRNA, 2'-F at U8,U16,U21,U28,U30; 2'-OH at G12,G27,G29; all others 2'-OMe; PS between G12 and C13) [aptamer ID 3(29)] | 91 | 3.1
GGGAUACUAGGGCAUUAAUGUUACCAGUGUAGUCCC (ssRNA, 2'-F at U8,U16,U21,U28,U30; 2'-OH at G12,G27,G29; all others 2'-OMe; 5' PEG 40K (GL2-400TS)-ssH; 3' idT) [aptamer ID 3(40)] | 97 | –
GGGAUACUAGGGCAUUAAUGUUACCAGUGUAGUCCC (ssRNA, 2'-F at U8,U16,U21,U28,U30; 2'-OH at G12,G27,G29; all others 2'-OMe; PS between A26 and G27) [aptamer ID 3(30)] | 99 | 3.3
GGGAUACUAGGGCAUUAAUGUUACCAGUGUAGUCCC (ssRNA, 2'-F at U8,U16,U21,U28,U30; 2'-OH at G12,G27,G29; all others 2'-OMe; PS between G27 and U28) [aptamer ID 3(31)] | 91 | 10
GGGAUACUAGGGCAUUAAUGUUACCAGUGUAGUCCC (ssRNA, 2'-F at U8,U16,U21,U28,U30; 2'-OH at G12,G27,G29; all others 2'-OMe; PS between U28 and G29) [aptamer ID 3(32)] | 91 | 4
GGGAUACUAGGGCAUUAAUGUUACCAGUGUAGUCCC (ssRNA, 2'-F at U8,U16,U21,U28,G29,U30; 2'-OH at G12,G27; all others 2'-OMe) [aptamer ID 3(27)] | 99 | 3.7
GGGAUACUAGGGCAUUAAUGUUACCAGUGUAGUCCC (ssRNA, 2'-OMe at G1,G2,G3,A4,A9,G10,G11,A14,A17,A18,G20,A23,C24,C25,A26; other C and U 2'-F; other purines 2'-OH) [aptamer ID 3(15)] | 86 | 14
GGGAUACUAGGGCAUUAAUGUUACCAGUGUAGUCCC (ssRNA, all C and U 2'-F; 2'-OMe at G1,G2,G3,A4; other purines 2'-OH) [aptamer ID 3(2)] | 89 | –
GGGAUACUAGGGCAUUAAUGUUACCAGUGUAGUCCC (ssRNA, 2'-F at U8,G12,U16,U21,G27,U28,G29,U30; all others 2'-OMe; 3' idT) [aptamer ID 3(34)] | 91 | –
GGGAUACUAGGGCAUUAAUGUUACCAGUGUAGUCCC (ssRNA, 2'-F at U8,U16,U21,U28,U30; 2'-OH at G12,G27,G29; all others 2'-OMe; 5' PEG 40K (Y-NHS-40K)-ssH; 3' idT) [aptamer ID 3(37)] | 97 | –
GGGAUACUAGGGCAUUAAUGUUACCAGUGUAGUCCC (ssRNA, 2'-F at U8,U16,U21,U28,U30; 2'-OH at G12,G27,G29; all others 2'-OMe; PS between G29 and U30) [aptamer ID 3(33)] | 90 | 4
GGGAUACUAGGGCAUUAAUGUUACCAGUGUAGUCCC (ssRNA, all C and U 2'-F; 2'-OMe at A9; other purines 2'-OH) [aptamer ID 3(5)] | 87 | –
GGGAUACUAGGGCAUUAAUGUUACCAGUGUAGUCCC (ssRNA, all C and U 2'-F; 2'-OMe at G32; other purines 2'-OH) [aptamer ID 3(10)] | 89 | –
